According to patent US20180325997A1:

Target: hTERT (human telomerase reverse transcriptase) (human) (UniProt O14746)
Assay: cell-based or functional assay

hTERT (human telomerase reverse transcriptase) (human), sequence (O14746 whole entry): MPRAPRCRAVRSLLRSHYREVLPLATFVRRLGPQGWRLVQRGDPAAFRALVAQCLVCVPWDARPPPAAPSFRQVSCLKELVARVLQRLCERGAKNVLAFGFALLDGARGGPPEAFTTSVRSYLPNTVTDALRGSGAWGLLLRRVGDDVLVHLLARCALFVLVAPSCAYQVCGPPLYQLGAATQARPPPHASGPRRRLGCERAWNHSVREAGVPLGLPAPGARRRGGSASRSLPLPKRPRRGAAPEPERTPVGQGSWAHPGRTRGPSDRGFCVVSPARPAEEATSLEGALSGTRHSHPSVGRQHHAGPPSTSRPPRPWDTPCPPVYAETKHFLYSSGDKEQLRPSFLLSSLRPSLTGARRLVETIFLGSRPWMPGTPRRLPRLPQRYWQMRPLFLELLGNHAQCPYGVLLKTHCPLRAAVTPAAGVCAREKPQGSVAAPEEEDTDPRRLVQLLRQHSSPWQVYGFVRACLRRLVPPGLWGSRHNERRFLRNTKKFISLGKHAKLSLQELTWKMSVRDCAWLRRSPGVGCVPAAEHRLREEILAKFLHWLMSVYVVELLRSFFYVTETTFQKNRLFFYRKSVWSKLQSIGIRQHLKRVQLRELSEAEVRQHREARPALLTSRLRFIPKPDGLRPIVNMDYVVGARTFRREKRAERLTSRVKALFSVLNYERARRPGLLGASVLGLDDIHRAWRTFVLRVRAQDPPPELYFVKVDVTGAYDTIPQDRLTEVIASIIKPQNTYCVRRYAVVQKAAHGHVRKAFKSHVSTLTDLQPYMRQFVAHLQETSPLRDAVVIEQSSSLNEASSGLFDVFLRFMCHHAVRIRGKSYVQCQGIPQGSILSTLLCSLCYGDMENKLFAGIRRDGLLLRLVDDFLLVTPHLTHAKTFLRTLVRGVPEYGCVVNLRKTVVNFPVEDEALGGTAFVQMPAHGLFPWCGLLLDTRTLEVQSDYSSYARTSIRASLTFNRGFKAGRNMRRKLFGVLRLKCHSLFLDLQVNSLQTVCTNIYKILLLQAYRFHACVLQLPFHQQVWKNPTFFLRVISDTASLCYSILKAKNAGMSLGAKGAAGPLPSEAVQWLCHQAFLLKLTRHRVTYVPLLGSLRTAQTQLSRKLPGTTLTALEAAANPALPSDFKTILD

Substance: LRP102-295::FLAG fragment (from UniProt P14206 102-295) (receptor)
- relative telomerase activity (TRAPEZE kit, real time PCR) in transfected MRC 5 cells against non-transfected cells: 83.4 % elevation
